Results published in US20250320281A1.

How the values were obtained:
Experiment in all cases: cell-based or functional assay
[1] = molecular target: HIV-1 Env of isolate Du172 (clade C pseudovirus) (HIV-1)
[2] = molecular target: HIV-1 Env of isolate PVO.4 (clade B pseudovirus) (HIV-1)
[3] = molecular target: HIV-1 Env of isolate THRO.18 (clade B pseudovirus) (HIV-1)
[4] = molecular target: HIV-1 92TH021 Env (pseudovirus) (HIV-1 isolate 92TH021 (clade AE))
[5] = molecular target: HIV-1 94UG103 Env (pseudovirus) (HIV-1 isolate 94UG103 (clade A))
[6] = molecular target: HIV-1 APV13 Env (pseudovirus) (HIV-1 isolate APV13 (clade B))
[7] = molecular target: HIV-1 CMU02 Env (pseudovirus) (HIV-1 isolate CMU02 (clade AE))
[8] = molecular target: HIV-1 JRFL Env (pseudovirus) (HIV-1 isolate JRFL (clade B))
[9] = molecular target: HIV-1 MGRM-D-001 Env (pseudovirus) (HIV-1 isolate MGRM-D-001 (clade D))
[10] = molecular target: HIV-1 Env of isolate 92BR020 (pseudovirus) (HIV-1)
[11] = molecular target: aMLV envelope protein on pseudovirus (negative control virus) (aMLV)
[12] = molecular target: HIV-1 Env of isolate MG RM-D-024 (HIV-1)
[13] = molecular target: HIV-1 Env of pseudovirus MGRM-AE-007 (subtype AE) (HIV-1)
[14] = molecular target: HIV-1 Env of pseudovirus MGRM-AG-001 (subtype AG) (HIV-1)
[15] = molecular target: HIV-1 Env of pseudovirus MGRM-AG-005 (subtype AG) (HIV-1)
[16] = molecular target: HIV-1 Env of pseudovirus MGRM-AG-009 (subtype AG) (HIV-1)
[17] = molecular target: HIV-1 Env of isolate MG RM-D-022 (clade D), on pseudovirus (HIV-1)
[18] = molecular target: HIV-1 Env of isolate MGRM-F1-015 (clade F), on pseudovirus (HIV-1)
[19] = molecular target: HIV-1 Env of isolate MGRM-F1-017 (clade F pseudovirus) (HIV-1)
[20] = molecular target: HIV-1 Env of isolate MGRM-F1-022 (clade F pseudovirus) (HIV-1)
[21] = molecular target: HIV-1 Env of isolate MGRM-F1-023 (clade F pseudovirus) (HIV-1)
[22] = molecular target: HIV-1 Env of pseudovirus MGRM-A-002 (subtype A) (HIV-1)
[23] = molecular target: HIV-1 Env of pseudovirus MGRM-A-004 (subtype A) (HIV-1)
[24] = molecular target: HIV-1 92RW020 Env (HIV-1)
[25] = molecular target: HIV-1 92TH021 Env (HIV-1)
[26] = molecular target: HIV-1 92UG005 Env (HIV-1)
[27] = molecular target: HIV-1 93UG077 Env (HIV-1)
HIV-1 APV17 Env (HIV-1) = molecular target: HIV-1 APV17 Env (HIV-1)
HIV-1 JRFL Env (HIV-1) = molecular target: HIV-1 JRFL Env (HIV-1)
[28] = molecular target: HIV-1 MGRM-A-010 Env (HIV-1)
[29] = molecular target: HIV-1 MGRM-C-027 Env (HIV-1)
[30] = molecular target: HIV-1 MGRM-C-027 envelope glycoprotein (Env) on pseudovirus (HIV-1 isolate MGRM-C-027 (clade C))
[31] = molecular target: HIV-1 MGRM-C-028 envelope glycoprotein (Env) on pseudovirus (HIV-1 isolate MGRM-C-028 (clade C))
[32] = molecular target: HIV-1 MGRM-D-018 envelope glycoprotein (Env) on pseudovirus (HIV-1 isolate MGRM-D-018 (clade D))

1443_C16 (PG16) (TCN-116) (antibody), sequence (VH): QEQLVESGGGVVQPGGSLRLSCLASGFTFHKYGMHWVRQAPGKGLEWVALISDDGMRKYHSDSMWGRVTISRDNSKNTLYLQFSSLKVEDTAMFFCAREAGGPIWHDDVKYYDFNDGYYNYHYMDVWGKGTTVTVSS
1443_C16 (PG16) (TCN-116) (antibody), sequence (VL): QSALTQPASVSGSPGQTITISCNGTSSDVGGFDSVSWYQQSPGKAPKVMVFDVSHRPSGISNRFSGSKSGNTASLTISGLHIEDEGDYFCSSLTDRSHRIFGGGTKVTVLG

For 1443_C16 (PG16) (TCN-116) (antibody), the IC50 (neutralization, TZM-bl pseudovirus assay) [1] was < 0.01 µg/mL, the IC50 (neutralization, TZM-bl pseudovirus assay) [2] was 12.3 µg/mL and the IC50 (neutralization, TZM-bl pseudovirus assay) [3] was 2.19 µg/mL.

5123_A06 (PGT-125) (antibody) gave a Neutralization by PGT-125, IC50 [4] of 0.0066 µg/mL, a Neutralization by PGT-125, IC80 [4] of 0.0292 µg/mL and a Neutralization by PGT-125, IC90 [4] of 0.0701 µg/mL. For the same substance, the Neutralization by PGT-125, IC95 [4] was 0.157 µg/mL, the Neutralization by PGT-125, IC50 [5] was 0.0124 µg/mL and the Neutralization by PGT-125, IC80 [5] was 0.0373 µg/mL. It also gave a Neutralization by PGT-125, IC90 [5] of 0.071 µg/mL, a Neutralization by PGT-125, IC95 [5] of 0.129 µg/mL and a Neutralization by PGT-125, IC50 [6] of 0.0128 µg/mL. It also gave a Neutralization by PGT-125, IC80 [6] of 0.0414 µg/mL, a Neutralization by PGT-125, IC90 [6] of 0.0821 µg/mL and a Neutralization by PGT-125, IC95 [6] of 0.154 µg/mL. For the same substance, the Neutralization by PGT-125, IC50 [7] was > 10 µg/mL, the Neutralization by PGT-125, IC80 [7] was > 10 µg/mL and the Neutralization by PGT-125, IC90 [7] was > 10 µg/mL. For the same substance, the Neutralization by PGT-125, IC95 [7] was > 10 µg/mL, the Neutralization by PGT-125, IC50 [8] was 0.0156 µg/mL and the Neutralization by PGT-125, IC80 [8] was 0.0462 µg/mL. It also gave a Neutralization by PGT-125, IC90 [8] of 0.0873 µg/mL, a Neutralization by PGT-125, IC95 [8] of 0.157 µg/mL and a Neutralization by PGT-125, IC50 [9] of 2.31 µg/mL. The Neutralization by PGT-125, IC80 [9] was > 10 µg/mL, the Neutralization by PGT-125, IC90 [9] was > 10 µg/mL and the Neutralization by PGT-125, IC95 [9] was > 10 µg/mL.

In the case of 4858_P08 (PGT-123) (antibody), the Primary Neutralization Index (B cell culture supernatant) [10] is reported as 2.8, the neutralization IC50 [11] is reported as > 10 µg/mL and the neutralization IC80 [11] is reported as > 10 µg/mL. The neutralization IC90 [11] was > 10 µg/mL and the neutralization IC95 [11] was > 10 µg/mL.

In the case of VRC01 (antibody), the IC50 [12] is reported as 0.366 µg/mL, the IC50, pseudovirus neutralization [13] is reported as 0.835 µg/mL and the IC50, pseudovirus neutralization [14] is reported as 0.228 µg/mL. The IC50, pseudovirus neutralization [15] was 0.091 µg/mL and the IC50, pseudovirus neutralization [16] was > 50 µg/mL.

PGV04 (antibody) was tested, and the IC50 (µg/mL), pseudovirus neutralization [17] was > 50 µg/mL, the IC50 (µg/mL), pseudovirus neutralization [18] was 0.179 µg/mL and the IC50 (µg/mL), pseudovirus neutralization [19] was 2.38 µg/mL. For the same substance, the IC50 (µg/mL), pseudovirus neutralization [20] was 0.072 µg/mL, the IC50 (µg/mL), pseudovirus neutralization [21] was 0.171 µg/mL and the IC50, pseudovirus neutralization [22] was 0.093 µg/mL. For the same substance, the IC50, pseudovirus neutralization [23] was 0.175 µg/mL.

Substance 4877_D15 (PGT-122) (antibody) has a Neutralization by PGT-122, IC50 [24] of 0.0072 µg/mL, a Neutralization by PGT-122, IC80 [24] of 0.0407 µg/mL and a Neutralization by PGT-122, IC90 [24] of 0.113 µg/mL. For the same substance, the Neutralization by PGT-122, IC95 [24] was 0.289 µg/mL, the Neutralization by PGT-122, IC50 [25] was > 10 µg/mL and the Neutralization by PGT-122, IC80 [25] was > 10 µg/mL. The Neutralization by PGT-122, IC90 [25] was > 10 µg/mL, the Neutralization by PGT-122, IC95 [25] was > 10 µg/mL and the Neutralization by PGT-122, IC50 [26] was > 10 µg/mL. The Neutralization by PGT-122, IC80 [26] was > 10 µg/mL, the Neutralization by PGT-122, IC90 [26] was > 10 µg/mL and the Neutralization by PGT-122, IC95 [26] was > 10 µg/mL. It also gave a Neutralization by PGT-122, IC50 [27] of 0.191 µg/mL, a Neutralization by PGT-122, IC80 [27] of 0.931 µg/mL and a Neutralization by PGT-122, IC90 [27] of 2.1 µg/mL. The Neutralization by PGT-122, IC95 [27] was 3.88 µg/mL, the Neutralization by PGT-122, IC50 (HIV-1 APV17 Env (HIV-1)) was 0.522 µg/mL and the Neutralization by PGT-122, IC80 (HIV-1 APV17 Env (HIV-1)) was 1.76 µg/mL. It also gave a Neutralization by PGT-122, IC90 (HIV-1 APV17 Env (HIV-1)) of 3.58 µg/mL, a Neutralization by PGT-122, IC95 (HIV-1 APV17 Env (HIV-1)) of 6.92 µg/mL and a Neutralization by PGT-122, IC50 (HIV-1 JRFL Env (HIV-1)) of 0.0471 µg/mL. It also gave a Neutralization by PGT-122, IC80 (HIV-1 JRFL Env (HIV-1)) of 0.166 µg/mL, a Neutralization by PGT-122, IC90 (HIV-1 JRFL Env (HIV-1)) of 0.342 µg/mL and a Neutralization by PGT-122, IC95 (HIV-1 JRFL Env (HIV-1)) of 0.659 µg/mL. For the same substance, the Neutralization by PGT-122, IC50 [28] was 1.68 µg/mL, the Neutralization by PGT-122, IC80 [28] was > 10 µg/mL and the Neutralization by PGT-122, IC90 [28] was > 10 µg/mL. The Neutralization by PGT-122, IC95 [28] was > 10 µg/mL, the Neutralization by PGT-122, IC50 [29] was 0.0388 µg/mL and the Neutralization by PGT-122, IC80 [29] was 0.499 µg/mL. The Neutralization by PGT-122, IC90 [29] was > 10 µg/mL and the Neutralization by PGT-122, IC95 [29] was > 10 µg/mL.

1496_C09 (PG9) (TCN-109) (antibody) gave a neutralization IC50 [30] of 2.45 µg/mL, a neutralization IC50 [31] of 0.121 µg/mL and a neutralization IC80 [31] of 0.645 µg/mL. For the same substance, the neutralization IC90 [31] was 1.65 µg/mL, the neutralization IC95 [31] was 3.71 µg/mL and the neutralization IC50 [32] was 0.0444 µg/mL. The neutralization IC80 [32] was 0.18 µg/mL, the neutralization IC90 [32] was 0.43 µg/mL and the neutralization IC95 [32] was 1.05 µg/mL.
